The text below walks through data of US20110263454A1, “Methods of Identifying Functional Characteristics of Promoters, Transcription Modifying Proteins and Transcription Modulating Agents” (Salk Institute for Biological Studies, priority 2008, published 2011).

One assay concerns mPgc1b promoter. Description: NHR-promoter luciferase screen, mPgc1b promoter. It is filed as cell-based, mouse. As to conditions: for Luc. act., normalized to lacZ / Normalized Luc. act., normalized to control: PGC1b promoter reporter, co-transfected HR, without or with its ligand; for Normalized Luc. act., normalized to control: relative to control; for luciferase activity normalized to lacZ activity and to a control, mPgc1b: mPgc1b promoter-luciferase, CV-1 cells, NHR +/- ligand, control = 1.00. The gist of the method:
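CV-1 cells co-transfected with NHR homodimer or NHR/RXR heterodimer (pcDNA3.1, C-terminal V5H6 tag), promoter-luciferase construct and LacZ transfection control. Orphan receptors screened without ligand. Luciferase normalized to LacZ and to no-NHR/no-ligand control.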

A further assay relates to mPer1 promoter. Description: NHR-promoter luciferase screen, mPer1 promoter. As to conditions: for Luc. act., normalized to lacZ / Normalized Luc. act., normalized to control: Per1 promoter reporter, co-transfected HR, with or without its ligand; for Normalized Luc. act., normalized to control: relative to control; for luciferase activity normalized to lacZ activity and to a control, mPer1: mPer1 promoter-luciferase, CV-1 cells, NHR +/- ligand, control = 1.00. In kind it is cell-based, mouse. The gist of the method:
(§1)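 CV-1 cells were co-transfected with 50 ng NHR (homodimer or NHR/RXR heterodimer), 100 ng promoter-luciferase construct and 50 ng LacZ. Luciferase was normalized to LacZ and to a no-NHR/no-ligand control.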

Another assay concerns mAdiponectin promoter. In words: NHR-promoter luciferase screen, mAdiponectin promoter. In kind it is cell-based, mouse. As to conditions: for Luc. act., normalized to lacZ / Normalized Luc. act., normalized to control: Adiponectin, HR component without or with its ligand; for mAdiponectin promoter reporter activity: transcription factor +/- ligand, control = 1.00. The gist of the method: as §1

For a further assay, the system named is RevErba promoter. Description: NHR-promoter luciferase screen, RevErba (RVRa) promoter. It is filed as cell-based. The arrangement: key to mRevErba promoter reporter activity / Normalized Luc. act., normalized to control: luciferase activity normalized to lacZ and to control (no NHR/ligand). As to conditions: for Luc. act., normalized to lacZ / Normalized Luc. act., normalized to control: HR component without or with ligand; for normalized Luc. act. on a logarithmic scale (column without head, Table 33): log10 of activity normalized to control; for mRevErba promoter reporter activity: transcription factor +/- ligand, control = 1.00. In a few lines: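 CV-1 cells co-transfected with NHR (pcDNA3.1, C-terminal V5H6 tag) as homodimer or RXR heterodimer, RevErbα promoter–luciferase reporter and LacZ transfection control; ligand added where applicable. Luciferase normalized to LacZ and to no-NHR/no-ligand control.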

The next assay has as its system hPPARg1 promoter. Description: NHR-promoter luciferase screen, hPPARg1 promoter. In kind it is cell-based, human. The settings on record: for Luc. act., normalized to lacZ / Normalized Luc. act., normalized to control: PPARG1 promoter, hormone receptor with or without its ligand; for Normalized Luc. act., normalized to control: relative to control; for Results of assays of transcription factor (+/- ligand) with hPPARg1: Table 6d, luciferase activity relative to control (control = 1.00). In a few lines: as §1

B1: DAX-1: DAX1 (NR0B1), cDNA driver (protein, UniProt P51843 1-470, looked up)
Nuclear receptor subfamily 0 …: MAGENHQWQGSILYNMLMSAKQTRAAPEAPETRLVDQCWGCSCGDEPGVGREGLLGGRNVALLYRCCFCGKDHPRQGSILYSMLTSAKQTYAAPKAPEATLGPCWGCSCGSDPGVGRAGLPGGRPVALLYRCCFCGEDHPRQGSILYSLLTSSKQTHVAPAAPEARPGGAWWDRSYFAQRPGGKEALPGGRATALLYRCCFCGEDHPQQGSTLYCVPTSTNQAQAAPEERPRAPWWDTSSGALRPVALKSPQVVCEAASAGLLKTLRFVKYLPCFQVLPLDQQLVLVRNCWASLLMLELAQDRLQFETVEVSEPSMLQKILTTRRRETGGNEPLPVPTLQHHLAPPAEARKVPSASQVQAIKCFLSKCWSLNISTKEYAYLKGTVLFNPDVPGLQCVKYIQGLQWGTQQILSEHTRMTHQGPHDRFIELNSTLFLLRFINANVIAELFFRPIIGTVSMDDMMLEMLCTKI
With B1, in the assay on mPgc1b promoter, the “Luc. act., normalized to lacZ” value is on record as 7.4; the “Normalized Luc. act., normalized to control” value amounted to 0.6; the “luciferase activity normalized to lacZ activity and to a control, mPgc1b” value was found to be 0.62. In the assay on mPer1 promoter, the “Luc. act., normalized to lacZ” value is on record as 153.4; the “Normalized Luc. act., normalized to control” value amounted to 1.1; the “luciferase activity normalized to lacZ activity and to a control, mPer1” value was 1.07. Moreover, in the assay with mAdiponectin promoter, the “Luc. act., normalized to lacZ” value is recorded as 45.6; the “Normalized Luc. act., normalized to control” value worked out at 0.7; the “mAdiponectin promoter reporter activity” value came to 0.73. For the same molecule, in the assay on RevErba promoter (RVRa promoter), the “Luc. act., normalized to lacZ” value was determined as 29.4; the “Normalized Luc. act., normalized to control” value amounted to 1.1; the “normalized Luc. act. on a logarithmic scale (column without head, Table 33)” value turned out to be 0.02. Further, the “mRevErba promoter reporter activity” value in the assay with RevErba promoter is reported as 1.05. Also, in the assay on hPPARg1 promoter, the “Luc. act., normalized to lacZ” value worked out at 67.5; the “Normalized Luc. act., normalized to control” value was found to be 1.0; the “Results of assays of transcription factor (+/- ligand) with hPPARg1” value was 0.98.

B2: SHP: Small Heterodimer Partner (NR0B2), cDNA driver (protein, UniProt Q15466 1-257, looked up)
Nuclear receptor subfamily 0 …: MSTSQPGACPCQGAASRPAILYALLSSSLKAVPRPRSRCLCRQHRPVQLCAPHRTCREALDVLAKTVAFLRNLPSFWQLPPQDQRRLLQGCWGPLFLLGLAQDAVTFEVAEAPVPSILKKILLEEPSSSGGSGQLPDRPQPSLAAVQWLQCCLESFWSLELSPKEYACLKGTILFNPDVPGLQAASHIGHLQQEAHWVLCEVLEPWCPAAQGRLTRVLLTASTLKSIPTSLLGDLFFRPIIGDVDIAGLLGDMLLLR
With B2, in the assay on mPgc1b promoter, the “Luc. act., normalized to lacZ” value turned out to be 9.0; the “Normalized Luc. act., normalized to control” value came to 0.8; the “luciferase activity normalized to lacZ activity and to a control, mPgc1b” value stood at 0.76. In the assay with mPer1 promoter, the “Luc. act., normalized to lacZ” value is given as 130.3; the “Normalized Luc. act., normalized to control” value is given as 0.9; the “luciferase activity normalized to lacZ activity and to a control, mPer1” value stood at 0.90. In addition, in the assay with mAdiponectin promoter, the “Luc. act., normalized to lacZ” value amounted to 46.1; the “Normalized Luc. act., normalized to control” value is 0.7; the “mAdiponectin promoter reporter activity” value was 0.73. In the assay with RevErba promoter (RVRa promoter), the “Luc. act., normalized to lacZ” value turned out to be 22.7; the “Normalized Luc. act., normalized to control” value is 0.8; the “normalized Luc. act. on a logarithmic scale (column without head, Table 33)” value is listed as −0.09. Also, the “negative reciprocal of normalized Luc. act. (fold repression; Table 33)” value with RevErba promoter (RVRa promoter, given only where activity is below control) is given as −1.229. Also, the “mRevErba promoter reporter activity” value with RevErba promoter came out at 0.81. Further, in the assay with hPPARg1 promoter, the “Luc. act., normalized to lacZ” value is on record as 67.9; the “Normalized Luc. act., normalized to control” value was found to be 1.0; the “Results of assays of transcription factor (+/- ligand) with hPPARg1” value is 0.99.
